Assay results as given in article PMC10576055.
Several values for one entry are separate records, joined by “and”; a condition that tells them apart may be missing. Equal entries are not always repeated.

Target: T1, GIPR-Rluc8 (human), P48546
T1 chain: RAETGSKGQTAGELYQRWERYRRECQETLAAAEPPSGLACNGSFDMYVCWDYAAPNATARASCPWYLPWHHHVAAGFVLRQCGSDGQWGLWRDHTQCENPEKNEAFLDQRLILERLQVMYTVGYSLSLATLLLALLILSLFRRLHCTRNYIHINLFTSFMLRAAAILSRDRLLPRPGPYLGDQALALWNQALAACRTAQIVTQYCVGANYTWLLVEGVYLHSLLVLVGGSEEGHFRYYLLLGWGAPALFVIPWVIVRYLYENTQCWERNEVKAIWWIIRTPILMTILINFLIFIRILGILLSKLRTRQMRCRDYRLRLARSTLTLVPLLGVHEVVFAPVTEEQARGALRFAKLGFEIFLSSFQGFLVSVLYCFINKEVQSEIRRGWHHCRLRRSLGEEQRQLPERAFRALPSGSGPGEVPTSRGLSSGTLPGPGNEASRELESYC
Assay: FRET or BRET
Details: remark: other sources report otherwise

pEC50 of GIP (1-42) for β-arr1 recruitment (BRET): 7.7 and 7.94 and 7.67
B1: Venus-β-arrestin 1, P49407 1-418 (natural protein)
chain: MGDKGTRVFKKASPNGKLTVYLGKRDFVDHIDLVDPVDGVVLVDPEYLKERRVYVTLTCAFRYGREDLDVLGLTFRKDLFVANVQSFPPAPEDKKPLTRLQERLIKKLGEHAYPFTFEIPPNLPCSVTLQPGPEDTGKACGVDYEVKAFCAENLEEKIHKRNSVRLVIRKVQYAPERPGPQPTAETTRQFLMSDKPLHLEASLDKEIYYHGEPISVNVHVTNNTNKTVKKIKISVRQYADICLFNTAQYKCPVAMEEADDTVAPSSTFCKVYTLTPFLANNREKRGLALDGKLKHEDTNLASSTLLREGANREILGIIVSYKVKVKLVVSRGGLLGDLASSDVAVELPFTLMHPKPKEEPPHREVPENETPVDTNLIELDTNDDDIVFEDFARQRLKGMKDDKEEEEDGTGSPQLNNR
